From publication doi:10.1101/2025.03.12.642038, “Structural, biophysical and biological analysis and characterisation of IRF4 DNA-binding domain mutations associated with multiple myeloma”
Residue numbers refer to the chain shown, from its start.

Columns and labels:
Assay in all cases: FP; FP: PBS + 0.05% Tween20, 5 nM DNA, 1 h, room temperature; SPR: Biacore S200, SA chip, protein 0.1-4500 nM, running buffer not given in material; errors are SD
Conditions in all cases: protein: recombinant; tags: N-terminal His8-linker-His8-TEV, cleaved; label: 3' fluorescein (FAM); hairpin, TTTT loop
IRF4 DBD L70V = target: T1, IRF4 DBD L70V (Homo sapiens, UniProt Q15306 20-132, L70V)
T1 sequence: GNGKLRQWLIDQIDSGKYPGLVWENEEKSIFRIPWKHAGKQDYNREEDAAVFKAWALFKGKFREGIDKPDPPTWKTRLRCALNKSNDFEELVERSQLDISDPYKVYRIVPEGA

IRF4 DBD S114R = target: T2, IRF4 DBD S114R (Homo sapiens, UniProt Q15306 20-132, S114R)
T2 sequence: T1 sequence with V51L, S95R

IRF4 DBD D117H = target: T3, IRF4 DBD D117H (Homo sapiens, UniProt Q15306 20-132, D117H)
T3 sequence: T1 sequence with V51L, D98H

IRF4 DBD D117A = target: T4, IRF4 DBD D117A (Homo sapiens, UniProt Q15306 20-132, D117A)
T4 sequence: T1 sequence with V51L, D98A

IRF4 DBD K59R = target: T5, IRF4 DBD K59R (Homo sapiens, UniProt Q15306 20-132, K59R)
T5 sequence: T1 sequence with K40R, V51L

Binder: CTTGGTTTCACTTCCTGCGTTTTCGCAGGAAGTGAAACCAAG (structured_DNA) [IRE hairpin (FAM)]
- Kd (IRF4 DBD L70V): 127 ± 27 nM
- Kd (IRF4 DBD S114R): 332 ± 162 nM
- Kd (IRF4 DBD D117H): 131 ± 28 nM
- Kd (IRF4 DBD D117A): 109 ± 31 nM
- Kd (IRF4 DBD K59R): 350 ± 275 nM
